These results are taken from publication doi:10.1101/2021.02.17.431492 (bioRxiv, 2021).

This test deals with batCoV-SHC014 S-2P (spike ectodomain) (Bat SARS-like coronavirus RsSHC014, UniProt U5WLK5, stabilised). As to the kind of experiment: ELISA. Background: An ELISA detects its analyte on a solid surface through an enzyme-linked reagent.

B1: DH1047 (cross-neutralizing RBD antibody), IgG (antibody, V domains shown)
VH: QVQLVQSGAEVKKPGASVQVSCQASANTFTNHYIHWVRQAPGQGLEWMGIIYPTGGNTIYAQGFQGRVTMTRDTSLNTIYLELSSLRSEDTAVYYCARDVRVDDSWSGYDLLSGGTYFDYWGQGTLVTVSS
VL: not shown
For B1, the binding result is listed as “binds”.
